Experimental data taken from the DeepSol protein solubility set.

Test: soluble on expression in E. coli; label from the status in PepcDB or PDB records

## MANTGSLVLLRHGESDWNALNLFTGWVDVGLTDKGQAEAVRSGELIAEHDLLPDVLYTSLLRRAITTAHLALDSADRLWIPVRRSWRLNERHYGALQGLDKAETKARYGEEQFMAWRRSYDTPPPPIERGSQFSQDADPRYADIGGGPLTECLADVVARFLPYFTDVIVGDLRVGKTVLIVAHGNSLRALVKHLDQMSDDEIVGLNIPTGIPLRYDLDSAMRPLVRGGTYLDPEAAAAGAAAVAGQGRGGVPRGAAALEHHHHHH
  soluble on expression in E. coli: soluble

## MDALNNKLYFIDSTKHKIFVEQIINGMHDWVRVIDINDNIIFVNESMAKALGKNVIGEKCYKAIGKSEPCENCTSRKAVFEGTIQAKEEIIGDRIFSVKSSPIRDENGQITAVVEVLRDITEMKKMQKKILEHNQKLQSELNMARRLQCSLLPKELPQDKIDFSYVYRPCEAIGGDFLDIFKIDDEHIGIYIADVSGHGVPASMLTVFLRSSINKKTLSPAEALNQLYKEFNRDYYDQELYITIFYAIIDTKNKNIIYSNAGHNASPVLFNHESHRFDILRIPGVPISDWVDNPEYTEKSISIEKGDRLFMYTDGIVELRNNKGEQFGEERLLNILLGEKMPPAMTLDRIIEAAMEFANIKNFNKIIDDITMALLEIL
  soluble on expression in E. coli: soluble

## MGSDKIHHHHHHMKIGVNSYIVREMTGRGFSLDELNVDFVELGFDDAEIIKNDGEINMKILKDLSGLGIEFTIHAPTSDGKNFPIDFGEYFPIDLGTYRKTPIIKRMKKIIKVAEYLDASVIVVHGGDIKESYTKAYVNTLRNLRELKPITEDSGVKIVVENLFEGRIGALPHEVLSFAKEGFEVCFDIGHAFLTAIRTGLRVDEFEMLFPYTTHLHLHDNNGFRDEHKPIGEGIIGFSYVERVLELTNPERAVLEIRRYNKENSVLLNVEVLQEISRDFSQMKRLTEVVEP
  soluble on expression in E. coli: not soluble

## MAQIIDFFAAFRGYYSDGSTFIQIISLGSHHNLSVHISERMLSESGIKLGNFLSATVSLAEHPKNFQLKRLNLQVTVEGNFAKVHGIEANLEKNADGILVFSTNNFASAKATNQGLEIGRYKITVQAVKPSEKDLFNGMKFFGTVEEKISGLTRRVASNNTNQVIGEGFRNMSISGKRTVS
  soluble on expression in E. coli: not soluble

## MKSARKNKNIIIDQNEFGILSLIKEGLLGTCTHLMNEKEVNEIIKSGKFKGESFPYPLSFAPKNAEEALNDIKSGDRIDLMLDEKVVGHIDFKSQFKNNKNFSDIFSPNTCSLEDMGTTCISGKIEIYNSQIEKIKENFQQIKNNLNAQKITAIVSSFDPLHRAHERMFRWTIDKADLVVIFLVESFDVNGFEFELKEAYLKKFIQNYLPPDRIFIFPLKNINIFHAHLNPGLESIIAKSLGCTKLVVGQNHTGLGMFYDDNQPKTILDDFSKDYGIEVIVLPEFVFCDQCRMIVSTRSCPHGCHHHLHYNSQSLKDLLRAGIIPPAIFIRKEVSSVILTSLFPNRLKNMQKIYNELFPTDGILEYKNDEEFYQKLLEIHQMSYMV
  soluble on expression in E. coli: not soluble

## MANDEQQQLLNKIVRDDSQDKQVLLMINGAAGTGKTFLIKLIENSMNRSVRKRVVLMTGSTGKAAKAIGGRTLHCTIGLPNEKPEDLERLKYQAFICVTTRLIIIDEITLLASWHLDATDMVLKRTPKRTDALFGGLSIILVGDLRQLNLGGWRGKKQIDTVFIKVGGYPDPISCQNVCD
  soluble on expression in E. coli: not soluble

## MVNFKDKSMPTAIEKALDFIGGMNTSASVPHSMDESTAKGILKYLHDLGVPVSPEVVVARGEQEGWNPEFTKKVAGWAEKVASGNRILIKNPEYFSTYMQEQLKELVLEHHHHHH
  soluble on expression in E. coli: soluble

## MQELINEYRGALQEVNEVKANLQTKIDAKKRPPQAAGQKRTIQEVPEKAIMSKLNSIIRSLEYSIEWMELGHEPAPRRAIHRRSGLQREVCVTDIETMRQWFVYEHGIAYDFEDNEPKISEWDKIRMEDAMSTMSTQEKKVFLLKHEKNLSYSQISDEMEISVRSVRSYLHRGEEKIQNQIDGSLFCMAI
  soluble on expression in E. coli: not soluble

## MAMTGVLRPGHAQVRVLNLEEGIHFYRNVLGLVETGRDDQGRVYFKCWDERDHSCYIIREADTAGIDFFGFKVLDKATLEKLDADLQAYGLTTTRIPAGEMLETGERVRFELPSGHLIELYAEKTCVGNGISEVNPAPWNAQREHGIAPIQLDHCLLYGPNIAEVQKIFTEVLGFYLVERVLSPDGDSDMGIWLSCSHKVHDIAFVEYPEKGKLHHCSFLLESWEQVLRAGDIMSMNEVNVDIGPTRHGVTRGCTIYAWDPSGNRFETFMGGYHPYPDYEPLSWTYDNFAQGLDYPQRKLHETFMTVVT
  soluble on expression in E. coli: soluble

## MSLIVITGASSGLGAELAKLYDAEGKATYLTGRSESKLSTVTNCLSNNVGYRARDLASHQEVEQLFEQLDSIPSTVVHSAGSGYFGLLQEQDPEQIQTLIENNLSSAINVLRELVKRYKDQPVNVVMIMSTAAQQPKAQESTYCAVKWAVKGLIESVRLELKGKPMKIIAVYPGGMATEFWETSGKSLDTSSFMSAEDAALMIHGALANIGNGYVSDITVNREGHHHHHH
  soluble on expression in E. coli: soluble

## MDANEKKEVIKKKYQEIAILGGSCCSGGCCGDSNSTDLSRSLGYSESDVQAVPDANMGLGCGNPTAFAELKPGDVVLDLGSGGGFDCFLAAQKIGSSGKVIGVDMTLEMVEKAQANARKYGYSNVEFRHGDIESLPVKDSSVDVIISNCVINLAPDKEKVFREAFRVLKPEGRMYISDMVLLDELPEELKNDSELLAGCIAGAVLKEEYLGLLKKAGFSVEILNEDLDISKRQYRDLPVESLKLKARVLEHHHHHH
  soluble on expression in E. coli: soluble

## MKILYIVLDGAADSPTSPRKTLEEASKPNIDSLGSHAVCGMVYTVKPGVAPQSDYATLSLLGYNPDEYYPGRGPLEAFGAGIEMRRGDIALRANFATVDPGTLRIIDRRVGRSLTSREARELASAVDGMELEDGEGTALFRATIGHRGVLVLRHRSKPLSDAISNTDPAYERRGRFSVALEKYEPFIKLSNPLVEDEAAVLAARMLNEFTLKAVEILDSHPVNLAREKRGLLKANAILSRDAGGLPEEKPPSFQERFGLRGASIVEMVVERGISRYIGLDDIRVEIEGRAREEVYREEAARAVEALETHDLVYVHLKGPDEPGHDGSFEGKIRAVEDIDKHFFAPLLDRLSSAGLEPAFVVTSDHATPWDVGAHSGDPVPLMISHQSIQ
  soluble on expression in E. coli: not soluble

## MFGNLGQAKKYLGQAAKMLIGIPDYDNYVEHMKTNHPDKPYMSYEEFFRERQNARYGGDGKGGMRCC
  soluble on expression in E. coli: soluble

## MEEKTILAQILQVLDLYAADMRKQFEALHEKFDSLQRQVQALNEKTDEMDKRIEEMDGRFERQIAQLERTVNERFERLEAKLGHIRVELVETQETVDFHSVKIAQHDRKIRHLLHAR
  soluble on expression in E. coli: not soluble

## MGSDKIHHHHHHMIVGFAGKLYKNYEKDGIELLKEVTDEALDIAGLNYADVDGIMANIGRGSFHGNRTYLNPPAQISEYFGIKPKIIEHVQYGGPSVLSMIYRAYKAIKAGDAETILCIQGGKISHLRDNHFQKTDIIDSPFDEYIKIYDQMSPISDYAMVAYRHSKLFGTTDEQRARIAVIQRYNASYNPKALFRNPITVEDVLKSRIVSYPLHLLEIVYPIDGFHVFVVSKRSSKSALRNIDILAYGEAHWPNPPAEWDDIIYTPTTESAKRASFDLNRVDAFQLYDSFTITVMLQMEDIGLVEKGKVGQFVESHDLSFKGDVPINTGGGSLNTGQPAYMSGGVILEEALLQLNDMANGHQVKGANVIFLNGIGWWSRRHSVTLVLGERK
  soluble on expression in E. coli: not soluble

## MGSDKIHHHHHHPEQIEKYPSIYPDYIGVTIPATIAPMNFSYTDTSYERIDVIVKGHQGKEVHINAKHVNFPEKEWKQLLNSNQGDSLLFTVSIKQKGKWSTYKPFPMYISPHPIDYGLVYRKIAPGYEVYSRMGIYERDLSSHKERPLVENTLVKGMCVNCHAFNRTDPSHFSLHIRGTHGATFMRTGNKDEYLNTKTDQTIAACVYPYWHPGGEYIAYSTNNTRQSFHTVKDERVEVLDLESDVVVYHPADHHLLLCDSLQKKDRFETFPAFSPDGRTLYFCSAEAKKIPEEYKEIRYNLCSIDFDPSTGTFGSRIDTLVNAEALGKSVSFPRPSYDGKYIMFTLSDYGNFSIWHKEANLWLLDLTSGDLRELSEVNSDDTESFHNWSSNSRWFVFSSRRGDGLYTRLYLASMDENGKISKPFLLPQEDPETYYDRSVYSYNVPDFVNAPILLDTKVFEKRITSKERIQVQVGN
  soluble on expression in E. coli: not soluble

## MSLAVERLFGTNGIRGIPNDDMSPDFAMSVGKAIGTYVSGEIAFGTDTRLTGDMIKNAVIAGILSTGISVIDLGVLPTPAIQYYSKKHGIYAVVITASHNPPQYNGIKVIDKDGTELERPGEEKIEEIFYSKAFRVVKWENIGRIRQVSDAIDIYINGVISNVDSDNIKSHAFKVLADAGNGAAYYSTPKLLEKLGCSITTLNANPDGRFTARNAEPVPENLVNLISLMKSGRFDLGIAHDGDADRAVFIDEKGNFIDGDRMLALITKYIAKAGDVVVTPVSSSDTIADICNAIGAKLIRTKVGAPIVARAMIDNGATIGGEENGGVIYGKHQYCRDGAMTVSLVLNLMASTNKKLSELISELPVYYLIKKKVERRVDWPSLARELKKGERVDETDGIKILKDDGWILIRPSGTEKILRIYAHSSDFELANKYCEQYIRKVNDIQDKLSEGHHHHHH
  soluble on expression in E. coli: not soluble

## MSLYHYFRPAQRSVFGDLMRDMAQMERQFTPVCRGSPSESSEIVNNDQKFAINLNVSQFKPEDLKINLDGHTLSIQGEQELKTEHGYSKKSFSRVILLPEDVDVGAVASNLSEDGKLSIEAPKKEAIQGRSIPIQQAPVEQKTSE
  soluble on expression in E. coli: not soluble

## MYPYIKLIATLFRAKNSPQMNLDEKSVLNCRAGLTDIDVFVELNNARHLTYMEFGRWDFAQRTGLLSLMRKNKWAFAVGGASVRYRRRIAFWKKFTVTTQVICHDGRWFYFLQETHIKDKVCSSALIKAAFTSKQGLVPATEVLAAYGKTTPNFDVPDWVNAWIDAESQRPWPLEHHHHHH
  soluble on expression in E. coli: soluble

## MAFSIMGILTIMEFLVYRDTRMKYEYEVDKDFTSKIRLNIDITVAMKCQYVGADVLDLAETMVTSAQGLAYQPVSLCSRTISNTSCGVSGKLWIQSTENVKVVTDAVSLVPNRLNSCSAGDI
  soluble on expression in E. coli: not soluble

## MEFTGKIIAILPPRGGVSKTSGNEWKSQEFVIENHDQYPRKMCFDVFGADKIEQFNIQMGEELTVSFDVDARQWNDRWFNSIRAWKVERVGAGAPMTPGAPVPPPAPSATPDFTMGDAKDDLPF
  soluble on expression in E. coli: not soluble

## MATEGMILTNHDHQIRVGVLTVSDSCFRNLAEDRSGINLKDLVQDPSLLGGTISAYKIVPDEIEEIKETLIDWCDEKELNLILTTGGTGFAPRDVTPEATKEVIEREAPGMALAMLMGSLNVTPLGMLSRPVCGIRGKTLIINLPGSKKGSQECFQFILPALPHAIDLLRDAIVKVKEVHDRSHHHHHH
  soluble on expression in E. coli: soluble

## MTTLSHVEALCALEQPYRADAECDRLFDAAMRELVDYHCEHSPGYRRWLEQNGFTPERLAGLSDWSQLPPIFANYFKRRLLLSTSGEDALELTSSGTTGQKSRMRYDERSIGAAQRMVDRIFDHYGWNTPQQPCNYLLLSYEPAGAITLGTAYTDQFLCKYAPVKRAVYALRHNGKGNEFDPFGAIRALQEFAAEGLPVRIFGFPAFLWFALERMRDMGLPPLALHPESLVFLGGGWKTHADQAIPKAELYRRLGEQLGLPDARCRDGYGSVEHPVPYVECTNHRFHVPSWARAWARDTATLARLPYGEAGFLHLVSPYITSSPAHSMLLSDLAVLQLAERCGCGLATDWFELLGRAGTSKSRSCAMAASELIKESLEHHHHHH
  soluble on expression in E. coli: soluble

## MKGKKVLITSGGCLEKWDQVRGHTNMAKGTIGRIIAEELLAKGAHVIYLHGYFAEKPSDVHRGLELHPFEGIVDLQDKMKSIISHEKVDAVIMAAAGSDWIVEKICDQDGNVLNMNGKISSDIAPIIHFQKAPKVLKQIKEWDPETVLVGFKLESDLNEEELFERAKNRMKEARANVMIANSPHSLYSRGAVHYVIGQDGKGKLCNGKDETAKEIVKSLEVLCNRVTAF
  soluble on expression in E. coli: not soluble
